Where no end group is shown, it is not given here.
B5: BRD3(2), second bromodomain of BRD3 (domain or fragment, human)
chain: GKLSEHLRYCDSILREMLSKKHAAYAWPFYKPVDAEALELHDYHDIIKHPMDLSTVKRKMDGREYPDAQGFAADVRLMFSNCYKYNPPDHEVVAMARKLQDVFEMRFAKMP
notes: BRD3, human, second bromodomain; the crystallised construct may differ; source: E. coli BL21(DE3), purified (Ni-NTA, TEV, SEC)
B6: CREBBP bromodomain (domain or fragment, human)
chain: RKKIFKPEELRQALMPTLEALYRQDPESLPFRQPVDPQLLGIPDYFDIVKNPMDLSTIKRKLDTGQYQEPWQYVDDVWLMFNNAWLYNRKTSRVYKFCSKLAEVFEQEIDPVMQSLG
notes: the crystallised construct may differ; also called CBP; KAT3A; source: E. coli BL21(DE3), purified (Ni-NTA, TEV, SEC)

Tests used:
Conditions in all cases: both partners purified
CREBBP bromodomain = target: B6; test: ITC; peptide (mM stock) titrated into bromodomain (about 50 μM), by the concentrations in the tables; 10 or 15°C, 50 mM HEPES pH 7.5, 150 mM NaCl; single binding site model
EP300 bromodomain = target: T1, EP300 bromodomain (human, UniProt Q09472 1040-1161); test: as above
T1 construct: the crystallised construct may differ; also called KAT3B; source: E. coli BL21(DE3), purified (Ni-NTA, TEV, SEC)
T1 sequence: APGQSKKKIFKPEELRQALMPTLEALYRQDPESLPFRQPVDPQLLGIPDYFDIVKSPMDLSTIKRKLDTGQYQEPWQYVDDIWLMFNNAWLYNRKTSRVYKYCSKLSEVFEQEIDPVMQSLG

[1] = target: T2, H3K9 peptide KQTARKacSTGGKY (human, acetyl-lysine at K9 (residue 6 of the peptide)); test: as above
T2 construct: histone H3, human; source: synthetic peptide

[2] = target: T3, H3K14 peptide KSTGGKacAPRKQY (human, acetyl-lysine at K14 (residue 6 of the peptide)); test: as above
T3 construct: histone H3, human; source: synthetic peptide

[3] = target: T4, H4K12/16/20 peptide GKacGGAKacRHRKacV (human, acetyl-lysine at K12, K16 and K20 (residues 2, 6 and 10 of the peptide)); test: ITC; as a1; rows with N of about 0.5 or 0.25: two or more bromodomains on one peptide, apparent binding constants, events not deconvoluted
T4 construct: histone H4, human; source: synthetic peptide

FALZ bromodomain [4] = target: FALZ bromodomain (human, UniProt Q12830 2914-3037); test: ITC; peptide (mM stock) titrated into bromodomain (about 50 μM), by the concentrations in the tables; 10 or 15°C, 50 mM HEPES pH 7.5, 150 mM NaCl; single binding site model
[5] = target: T5, H4K8 peptide RGKGGKacGLGKGY (human, acetyl-lysine at K8 (residue 6 of the peptide)); test: as above
T5 construct: histone H4, human; source: synthetic peptide

FALZ bromodomain [6] = target: FALZ bromodomain (human, UniProt Q12830 2914-3037); test: as above; remark: listed apart in the source
[7] = target: T3, H3K14 peptide KSTGGKacAPRKQY; test: as above; remark: listed apart in the source
[8] = target: B5; test: as above

B1: H3K56 peptide GTVALREIRRYQKacS (peptide)
peptide: GTVALREIRRYQK(Ac)S
notes: histone H3, human; source: synthetic peptide
Kd (CREBBP bromodomain): 21.3 ± 1.4 µM
stoichiometry N (CREBBP bromodomain): 0.96 ± 0.025
Kd (EP300 bromodomain): 13.4 ± 0.5 µM
stoichiometry N (EP300 bromodomain): 0.98 ± 0.009

B2: H4K44 peptide GGVKacRISGLI (peptide)
peptide: GGVK(Ac)RISGLI
notes: histone H4, human; source: synthetic peptide
Kd (CREBBP bromodomain): 82 ± 3.8 µM
stoichiometry N (CREBBP bromodomain): 1.06 ± 0.01
Kd (EP300 bromodomain): 132 ± 6.3 µM
stoichiometry N (EP300 bromodomain): 0.97 ± 0.088

B3: H3K56 peptide IRRYQKacSTELLY (peptide)
peptide: IRRYQK(Ac)STELLY
notes: as for B1
Kd (CREBBP bromodomain): 13.8 ± 0.4 µM
stoichiometry N (CREBBP bromodomain): 0.97 ± 0.013

B4: CECR2 bromodomain (domain or fragment)
chain: not shown
notes: CECR2, human, bromodomain; the crystallised construct may differ; source: E. coli BL21(DE3), purified (Ni-NTA, TEV, SEC)
Kd [1]: 189 ± 11.6 µM
Kd [2]: 43.9 ± 0.8 µM

B5
Kd [3]: 61.3 ± 1.9 µM

B6
Kd [2]: 734 ± 90.6 µM

B7: H2BK85 peptide AHYNKacRSTITSRE (peptide)
peptide: AHYNK(Ac)RSTITSRE
notes: histone H2B, human; source: synthetic peptide
Kd (CREBBP bromodomain): 66.2 ± 3.8 µM
stoichiometry N (CREBBP bromodomain): 0.98 ± 0.059

RRRRRK(Ac)RRRRRY [poly-R peptide RRRRRKacRRRRRY]
Kd (FALZ bromodomain [4]): 3.1 ± 0.1 µM
stoichiometry N (FALZ bromodomain [4]): 1

B8: KIAA1240 bromodomain (domain or fragment, human)
chain: MEDQEENTLRELRLFLRDVTKRLATDKRFNIFSKPVDIEEVSDYLEVIKEPMDLSTVITKIDKHNYLTAKDFLKDIDLICSNALEYNPDKDPGDKIIRHRACTLKDTAHAIIAAELDPEFNKLCEEIKEARIKRG
notes: KIAA1240 protein, human, bromodomain; the crystallised construct may differ; also called ATAD2B; source: E. coli BL21(DE3), purified (Ni-NTA, TEV, SEC)
Kd [5]: 150 ± 6.4 µM

B9: H3K36 peptide ATGGVKacKPHRY (peptide)
peptide: ATGGVK(Ac)KPHRY
notes: histone H3, human; the last Y is Y41 of H3; source: synthetic peptide
Kd (CREBBP bromodomain): 71.4 ± 1 µM
stoichiometry N (CREBBP bromodomain): 1
stoichiometry N (EP300 bromodomain): 1 ± 0.044

B10: H4K5 peptide SGRGKacGGKGLY (peptide)
peptide: SGRGK(Ac)GGKGLY
notes: as for B2
Kd (FALZ bromodomain [6]): 175 ± 13.3 µM
stoichiometry N (FALZ bromodomain [6]): 1 ± 0.17

B11: H4K44 peptide RRGGVKacRISGLY (peptide)
peptide: RRGGVK(Ac)RISGLY
notes: as for B2
Kd (CREBBP bromodomain): 25.3 ± 0.6 µM
stoichiometry N (CREBBP bromodomain): 1 ± 0.099

B12: PCAF bromodomain (domain or fragment, human)
chain: GKEKSKEPRDPDQLYSTLKSILQQVKSHQSAWPFMEPVKRTEAPGYYEVIRFPMDLKTMSERLKNRYYVSKKLFMADLQRVFTNCKEYNPPESEYYKCANILEKFFFSKIKEAGLID
notes: P300/CBP-associated factor, human, bromodomain; the crystallised construct may differ; also called KAT2B; source: E. coli BL21(DE3), purified (Ni-NTA, TEV, SEC)
Kd [7]: 188 ± 14.6 µM

B13: H3K18 peptide GKAPRKacQLATKY (peptide)
peptide: GKAPRK(Ac)QLATKY
notes: as for B1
Kd [8]: 67.1 ± 4.5 µM
stoichiometry N [8]: 1.06 ± 0.068

Reference: paper PMC3326523 (Cell, 2012)
